Reference: US20200199241A1 (Chugai, published 2020)
Positions count from the first letter of the chain named.

B1: IgG1-F922 (antibody)
heavy: QVQLQESGPGLVKPSETLSLTCAVSGHSISHDHAWSWVRQPPGEGLEWIGFISYSGITNYNPSLQGRVTISRDNSKNTLYLQMNSLRAEDTAVYYCARSLARTTAMDYWGEGTLVTVSSASTKGPSVFPLAPSSKSTSGGTAALGCLVKDYFPEPVTVSWNSGALTSGVHTFPAVLQSSGLYSLSSVVTVPSSSLGTQTYICNVNHKPSNTKVDKKVEPKSCDKTHTCPPCPAPELKGGPKVFLFPPKPKDTLYISRTPEVTCVVVDVSHEDPEVKFNWYVDGVEVHEAKTKPREEQYNSTYRVVSVLTVLHQDWLNGKEYKCKVSNKALPAPIEKTISKAKGQPREPQVYTLPPSRDELTKNQVSLTCLVKGFYPSDIAVEWESNGQPENNYKTTPPVLDSDGSFFLYSKLTVDKSRWQQGNVFSCSVMHEALHYHITQKSLSLSP
light: not shown
notes: EU numbering; copies: 2 + 2
B2: IgG1-F943 (antibody)
heavy: B1 heavy with K237R, E288N, T309Q, Q313A, I438V
light: not shown
notes: EU numbering; copies: 2 + 2
B3: IgG1-F1021 (antibody)
heavy: B1 heavy with K237L, P240D, K241S, T252V, E288N, N327A, I438Y
light: not shown
notes: EU numbering; copies: 2 + 2
B4: IgG1-F954 (antibody)
heavy: B1 heavy with K237L, K241S, E288N, H437K, I438V
light: not shown
notes: EU numbering; copies: 2 + 2
B5: IgG1-F933 (antibody)
heavy: B1 heavy with L236R, K237L, P240D, K241S, T252V, E288N, I438Y
light: not shown
notes: EU numbering; copies: 2 + 2
B6: IgG1-F929 (antibody)
heavy: B1 heavy with K237L, K241S, S256T, E288N, T309Q, Q313A
light: not shown
notes: EU numbering; copies: 2 + 2
B7: IgG1-F935 (antibody)
heavy: B1 heavy with K237L, G239K, P240D, K241S, T252V, E288N, I438Y
light: not shown
notes: EU numbering; copies: 2 + 2
B8: IgG1-F1009 (antibody)
heavy: B1 heavy with K237R, T252V, E288N, T309Q, V310P, Q313A, I438V
light: not shown
notes: copies: 2 + 2
B9: IgG1-F980 (antibody)
heavy: B1 heavy with K237L, K241S, S256V, E288N, I438Y
light: not shown
notes: EU numbering; copies: 2 + 2
B10: IgG1-F971 (antibody)
heavy: B1 heavy with K237L, K241S, S256H, E288N, I438Y
light: not shown
notes: EU numbering; copies: 2 + 2
B11: IgG1-F989 (antibody)
heavy: B1 heavy with K237R, E288N, V310P, I438V
light: not shown
notes: EU numbering; copies: 2 + 2
B12: IgG1-F932 (antibody)
heavy: B1 heavy with K237L, K241S, T252V, E288N, I438Y
light: not shown
notes: EU numbering; copies: 2 + 2
B13: IgG1-F925 (antibody)
heavy: B1 heavy with K237R, E288N, T309Q, Q313A
light: not shown
notes: EU numbering; copies: 2 + 2
B14: IgG1-F960 (antibody)
heavy: B1 heavy with K237L, K241S, E288N, H437R, I438V
light: not shown
notes: EU numbering; copies: 2 + 2
B15: IgG1-F1023 (antibody)
heavy: B1 heavy with K237L, K241D, T252V, E288N, T309Q, Q313A, I438V
light: not shown
notes: EU numbering; copies: 2 + 2
B16: IgG1-F1020 (antibody)
heavy: B1 heavy with K237L, P240D, K241S, T252V, E288N, T309Q, Q313A, N327G, I438Y
light: not shown
notes: EU numbering; copies: 2 + 2
B17: IgG1-F993 (antibody)
heavy: B1 heavy with K237L, K241S, E288N, T309Q, Q313A, I438V
light: not shown
notes: EU numbering; copies: 2 + 2
B18: IgG1-F937 (antibody)
heavy: B1 heavy with K237L, P240D, T252V, E288N, I438Y
light: not shown
notes: EU numbering; copies: 2 + 2
B19: IgG1-F957 (antibody)
heavy: B1 heavy with K237L, K241S, E288N, H437N, I438V
light: not shown
notes: EU numbering; copies: 2 + 2
B20: IgG1-F923 (antibody)
heavy: B1 heavy with K237R
light: not shown
notes: EU numbering; copies: 2 + 2
B21: IgG1-F970 (antibody)
heavy: B1 heavy with K237L, K241S, S256G, E288N, I438Y
light: not shown
notes: EU numbering; copies: 2 + 2
B22: IgG1-F987 (antibody)
heavy: B1 heavy with K237L, P240D, K241S, T252V, E288N, T309Q, Q313A, I438V
light: not shown
notes: EU numbering; copies: 2 + 2
B23: IgG1-F997 (antibody)
heavy: B1 heavy with K237L, K241S, K250I, T252V, E288N, I438V
light: not shown
notes: EU numbering; copies: 2 + 2
B24: IgG1-F995 (antibody)
heavy: B1 heavy with K237R, P240D, E288N, I438Y
light: not shown
notes: EU numbering; copies: 2 + 2
B25: IgG1-F946 (antibody)
heavy: B1 heavy with K237L, K241S, T252V, E288N, T309Q, Q313A, I438V
light: not shown
notes: EU numbering; copies: 2 + 2
B26: IgG1-F1015 (antibody)
heavy: B1 heavy with K237R, E288N, T309Q, V310P, Q313A, I438Y
light: not shown
notes: EU numbering; copies: 2 + 2
B27: IgG1-F1024 (antibody)
heavy: B1 heavy with K237L, K241S, T252V, E288N, T309Q, Q313A, K328D, L330Y, I438V
light: not shown
notes: EU numbering; copies: 2 + 2
B28: IgG1-F1011 (antibody)
heavy: B1 heavy with K237L, K241S, T252V, E288N, V310P, I438Y
light: not shown
notes: EU numbering; copies: 2 + 2
B29: IgG1-F991 (antibody)
heavy: B1 heavy with K237R, T309Q, Q313A, I438V
light: not shown
notes: EU numbering; copies: 2 + 2
B30: IgG1-F990 (antibody)
heavy: B1 heavy with K237R, E288N, T309Q, V310P, Q313A, I438V
light: not shown
notes: EU numbering; copies: 2 + 2
B31: IgG1-F996 (antibody)
heavy: B1 heavy with K237R, P240D, E288N, I438V
light: not shown
notes: EU numbering; copies: 2 + 2
B32: IgG1-F942 (antibody)
heavy: B1 heavy with E288N, T309Q, Q313A, I438V
light: not shown
notes: EU numbering; copies: 2 + 2
B33: IgG1-F992 (antibody)
heavy: B1 heavy with K237R, E288N, T309Q, Q313A, M430I, I438V
light: not shown
notes: EU numbering; copies: 2 + 2
B34: IgG1-F930 (antibody)
heavy: B1 heavy with K237L, P240D, K241S, T252V, I438Y
light: not shown
notes: EU numbering; copies: 2 + 2
B35: IgG1-F1013 (antibody)
heavy: B1 heavy with K237L, K241S, T252V, E288N, T309Q, V310P, Q313A, I438Y
light: not shown
notes: EU numbering; copies: 2 + 2
B36: IgG1-F924 (antibody)
heavy: B1 heavy with E288N, T309Q, Q313A
light: not shown
notes: EU numbering; copies: 2 + 2
B37: IgG1-F938 (antibody)
heavy: B1 heavy with E288N, I438V
light: not shown
notes: copies: 2 + 2
B38: IgG1-F994 (antibody)
heavy: B1 heavy with K237L, K241S, E288N, N327G, I438Y
light: not shown
notes: EU numbering; copies: 2 + 2
B39: IgG1-F988 (antibody)
heavy: B1 heavy with K237L, P240D, K241S, T252V, I438V
light: not shown
notes: EU numbering; copies: 2 + 2
B40: IgG1-F1016 (antibody)
heavy: B1 heavy with K237L, K241S, T252V, T309Q, V310P, Q313A, I438V
light: not shown
notes: EU numbering; copies: 2 + 2
B41: IgG1-F998 (antibody)
heavy: B1 heavy with K237L, K241S, K250Y, T252V, E288N, I438V
light: not shown
notes: EU numbering; copies: 2 + 2
B42: IgG1-F1010 (antibody)
heavy: B1 heavy with K237R, E288N, T309A, Q313H, I438Y
light: not shown
notes: EU numbering; copies: 2 + 2
B43: IgG1-F940 (antibody)
heavy: B1 heavy with K237L, P240D, K241S, T252V, E288N, I438V
light: not shown
notes: EU numbering; copies: 2 + 2
B44: IgG1-F926 (antibody)
heavy: B1 heavy with S256T, E288N
light: not shown
notes: EU numbering; copies: 2 + 2
B45: IgG1-F972 (antibody)
heavy: B1 heavy with K237L, K241S, S256I, E288N, I438Y
light: not shown
notes: EU numbering; copies: 2 + 2
B46: IgG1-F1008 (antibody)
heavy: B1 heavy with K237R, T252V, E288N, I438V
light: not shown
notes: EU numbering; copies: 2 + 2
B47: IgG1-F939 (antibody)
heavy: B1 heavy with K237R, E288N, I438V
light: not shown
notes: copies: 2 + 2
B48: IgG1-F945 (antibody)
heavy: B1 heavy with K237L, K241S, T252V, E288N, V310P, I438V
light: not shown
notes: EU numbering; copies: 2 + 2
B49: IgG1-F934 (antibody)
heavy: B1 heavy with K237L, G238K, P240D, K241S, T252V, E288N, I438Y
light: not shown
notes: EU numbering; copies: 2 + 2
B50: IgG1-F978 (antibody)
heavy: B1 heavy with K237L, K241S, S256Q, E288N, I438Y
light: not shown
notes: EU numbering; copies: 2 + 2
B51: IgG1-F1025 (antibody)
heavy: B1 heavy with K237L, K241D, T252V, E288N, T309Q, Q313A, K328D, L330Y, I438V
light: not shown
notes: EU numbering; copies: 2 + 2
B52: IgG1-F999 (antibody)
heavy: B1 heavy with K237L, K241S, T252V, E260H, E288N, I438V
light: not shown
notes: EU numbering; copies: 2 + 2
B53: IgG1-F947 (antibody)
heavy: B1 heavy with K237L, K241S, T252V, E288N, T309Q, V310P, Q313A, I438V
light: not shown
notes: copies: 2 + 2
B54: IgG1-F1012 (antibody)
heavy: B1 heavy with K237R, T252V, E288N, V310P, I438Y
light: not shown
notes: EU numbering; copies: 2 + 2
B55: IgG1-F966 (antibody)
heavy: B1 heavy with K237L, K241S, S256A, E288N, I438Y
light: not shown
notes: EU numbering; copies: 2 + 2
B56: IgG1-F927 (antibody)
heavy: B1 heavy with K237R, S256T, E288N
light: not shown
notes: EU numbering; copies: 2 + 2
B57: IgG1-F944 (antibody)
heavy: B1 heavy with K237L, K241S, T252V, E288N, I438V
light: not shown
notes: EU numbering; copies: 2 + 2
B58: IgG1-F1018 (antibody)
heavy: B1 heavy with K237R, T309Q, V310P, Q313A, I438V
light: not shown
notes: EU numbering; copies: 2 + 2
B59: IgG1-F931 (antibody)
heavy: B1 heavy with K237L, P240D, K241S, T252V, E288N
light: not shown
notes: EU numbering; copies: 2 + 2
B60: IgG1-F1026 (antibody)
heavy: B1 heavy with K237L, K241S, E288N, T309A, Q313H, I438V
light: not shown
notes: EU numbering; copies: 2 + 2

Molecular target: T1, soluble human FcRn complexed with β2-microglobulin (human, UniProt P61769 21-119, limits assumed)
T1 construct: also called hFcRn
Experiment: Biacore SPR, pH 7.0;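 note: test antibodies captured on a Protein L chip with human FcRn flowed over as analyte, KD obtained as the ratio of dissociation to association rate constants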

| Kd | Binder |
| --- | --- |
| 59 nM | B1 |
| 40 nM | B2 |
| 330 nM | B3 |
| 530 nM | B4 |
| 300 nM | B5 |
| 29 nM | B6 |
| 320 nM | B7 |
| 12 nM | B8 |
| 180 nM | B9 |
| 2600 nM | B10 |
| 14 nM | B11 |
| 320 nM | B12 |
| 32 nM | B13 |
| 800 nM | B14 |
| 44 nM | B15 |
| 85 nM | B16 |
| 38 nM | B17 |
| 310 nM | B18 |
| 770 nM | B19 |
| 60 nM | B20 |

| Kd | Binder |
| --- | --- |
| 2500 nM | B21 |
| 40 nM | B22 |
| 380 nM | B23 |
| 290 nM | B24 |
| 43 nM | B25 |
| 22 nM | B26 |
| 40 nM | B27 |
| 45 nM | B28 |
| 13 nM | B29 |
| 9.4 nM | B30 |
| 130 nM | B31 |
| 42 nM | B32 |
| 51 nM | B33 |
| 140 nM | B34 |
| 30 nM | B35 |
| 34 nM | B36 |
| 160 nM | B37 |
| 280 nM | B38 |
| 69 nM | B39 |
| 3.8 nM | B40 |

| Kd | Binder |
| --- | --- |
| 850 nM | B41 |
| 190 nM | B42 |
| 150 nM | B43 |
| 110 nM | B44 |
| 260 nM | B45 |
| 170 nM | B46 |
| 150 nM | B47 |
| 17 nM | B48 |
| 310 nM | B49 |
| 1300 nM | B50 |
| 36 nM | B51 |
| 210 nM | B52 |
| 11 nM | B53 |
| 47 nM | B54 |
| 310 nM | B55 |
| 100 nM | B56 |
| 170 nM | B57 |
| 3.2 nM | B58 |
| 120 nM | B59 |
| 84 nM | B60 |
